Data published in PMC10018351.

Legend:
hnRNPU [1] = target: hnRNPU (UniProt Q00839); experiment: anti-Flag co-IP, hnRNPU immunoblot; settings: reference: wild type; sites S83,S85
hnRNPU [2] = target: hnRNPU (UniProt Q00839); experiment: Flag-hnRNPU co-IP, HA-FOXN3 immunoblot; settings: reference: WT FOXN3 with HA-p38; sites S83,S85

Row | Substance | binding against the reference (hnRNPU [1]) | binding against the reference (hnRNPU [2])
1 | FOXN3 (from UniProt O00409) S83,85A | stronger | –
2 | FOXN3 (from UniProt O00409) S83,85A with HA-p38 | – | stronger
